According to the supplement of paper PMC5998384:

Tests used:
HeLa Kyoto [1] = assay: solubility in G1/S (NP-40 vs SDS abundance) (log2 ratio); higher = more soluble; conditions: cell cycle stage: G1/S
HeLa Kyoto [2] = assay: solubility change mitosis vs G1/S (difference of NP-40 vs SDS log2 ratios) (log2 ratio difference); higher = more soluble in mitosis
HeLa Kyoto [3] = assay: melting temperature (median over replicates), in situ; higher = more thermally stable
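Throughout, for melting temperature (median over replicates), in situ: HeLa Kyoto cells synchronized by double thymidine or nocodazole block, proteins quantified by TMT10plex mass spectrometry, three independent biological replicates.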
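Throughout, for solubility change mitosis vs G1/S (difference of NP-40 vs SDS log2 ratios): synchronized HeLa Kyoto cells (double thymidine block for G1/S, nocodazole release for mitosis), protein amounts in NP-40 versus SDS lysates quantified by mass spectrometry, three biological replicates.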
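Throughout, for solubility in G1/S (NP-40 vs SDS abundance): HeLa Kyoto cells arrested at G1/S by double thymidine block, proteins quantified by TMT10plex mass spectrometry in mild NP-40 versus SDS extracts, three biological replicates.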

| Sequence | solubility in G1/S (log2) (HeLa Kyoto [1]) | solubility change mitosis (log2) (HeLa Kyoto [2]) | melting temperature (HeLa Kyoto [3]; cell cycle stage: G1/S) [°C] | melting temperature (HeLa Kyoto [3]; cell cycle stage: mitosis) [°C] |
| --- | --- | --- | --- | --- |
| MEESEPERKRARTDEVPAGGSRSEAEDEDDEDYVPYVPLRQRRQLLLQKLLQRRRKGAAEEEQQDSGSEPRGDEDDIPLGPQSNVSLLDQHQHLKEKAEARKESAKEKQLKEEEKILESVAEGRALMSVKEMAKGITYDDPIKTSWTPPRYVLSMSEERHERVRKKYHILVEGDGIPPPIKSFKEMKFPAAILRGLKKKGIHHPTPIQIQGIPTILSGRDMIGIAFTGSGKTLVFTLPVIMFCLEQEKRLPFSKREGPYGLIICPSRELARQTHGILEYYCRLLQEDSSPLLRCALCIGGMSVKEQMETIRHGVHMMVATPGRLMDLLQKKMVSLDICRYLALDEADRMIDMGFEGDIRTIFSYFKGQRQTLLFSATMPKKIQNFAKSALVKPVTINVGRAGAASLDVIQEVEYVKEEAKMVYLLECLQKTPPPVLIFAEKKADVDAIHEYLLLKGVEAVAIHGGKDQEERTKAIEAFREGKKDVLVATDVASKGLDFPAIQHVINYDMPEEIENYVHRIGRTGRSGNTGIATTFINKACDESVLMDLKALLLEAKQKVPPVLQVLHCGDESMLDIGGERGCAFCGGLGHRITDCPKLEAMQTKQVSNIGRKDYLAHSSMDF [DDX41] | -0.425 | 0.325 | 47.5 | 49 |
| MEGGFGSDFGGSGSGKLDPGLIMEQVKVQIAVANAQELLQRMTDKCFRKCIGKPGGSLDNSEQKCIAMCMDRYMDAWNTVSRAYNSRLQRERANM [TIMM13] | -0.594 | 0.337 | 53.8 |  |
| MEKIEEQFANLHIVKCSLGTKEPTYLLGIDTSKTVQAGKENLVAVLCSNGSIRIYDKERLNVLREFSGYPGLLNGVRFANSCDSVYSACTDGTVKCWDARVAREKPVQLFKGYPSNIFISFDINCNDHIICAGTEKVDDDALLVFWDARMNSQNLSTTKDSLGAYSETHSDDVTQVRFHPSNPNMVVSGSSDGLVNVFDINIDNEEDALVTTCNSISSVSCIGWSGKGYKQIYCMTHDEGFYWWDLNHLDTDEPVTRLNIQDVREVVNMKEDALDYLIGGLYHEKTDTLHVIGGTNKGRIHLMNCSMSGLTHVTSLQGGHAATVRSFCWNVQDDSLLTGGEDAQLLLWKPGAIEKTFTKKESMKIASSVHQRVRVHSNDSYKRRKKQ [WDR89] | -1.26 | 0.369 | 57.4 | 55.9 |
| MEPAVSLAVCALLFLLWVRLKGLEFVLIHQRWVFVCLFLLPLSLIFDIYYYVRAWVVFKLSSAPRLHEQRVRDIQKQVREWKEQGSKTFMCTGRPGWLTVSLRVGKYKKTHKNIMINLMDILEVDTKKQIVRVEPLVTMGQVTALLTSIGWTLPVLPELDDLTVGGLIMGTGIESSSHKYGLFQHICTAYELVLADGSFVRCTPSENSDLFYAVPWSCGTLGFLVAAEIRIIPAKKYVKLRFEPVRGLEAICAKFTHESQRQENHFVEGLLYSLDEAVIMTGVMTDEAEPSKLNSIGNYYKPWFFKHVENYLKTNREGLEYIPLRHYYHRHTRSIFWELQDIIPFGNNPIFRYLFGWMVPPKISLLKLTQGETLRKLYEQHHVVQDMLVPMKCLQQALHTFQNDIHVYPIWLCPFILPSQPGLVHPKGNEAELYIDIGAYGEPRVKHFEARSCMRQLEKFVRSVHGFQMLYADCYMNREEFWEMFDGSLYHKLREKLGCQDAFPEVYDKICKAARH [DHCR24] | -0.264 | -0.166 | 51.3 | 52.3 |
| MEQPWPPPGPWSLPRAEGEAEEESDFDVFPSSPRCPQLPGGGAQMYSHGIELACQKQKEFVKSSVACKWNLAEAQQKLGSLALHNSESLDQEHAKAQTAVSELRQREEEWRQKEEALVQREKMCLWSTDAISKDVFNKSFINQDKRKDTEDEDKSESFMQKYEQKIRHFGMLSRWDDSQRFLSDHPYLVCEETAKYLILWCFHLEAEKKGALMEQIAHQAVVMQFIMEMAKNCNVDPRGCFRLFFQKAKAEEEGYFEAFKNELEAFKSRVRLYSQSQSFQPMTVQNHVPHSGVGSIGLLESLPQNPDYLQYSISTALCSLNSVVHKEDDEPKMMDTV [CDC37L1] | 0.655 | -0.0113 | 46.3 | 50.9 |
| METPGASASSLLLPAASRPPRKREAGEAGAATSKQRVLDEEEYIEGLQTVIQRDFFPDVEKLQAQKEYLEAEENGDLERMRQIAIKFGSALGKMSREPPPPYVTPATFETPEVHAGTGVVGNKPRPRGRGLEDGEAGEEEEKEPLPSLDVFLSRYTSEDNASFQEIMEVAKERSRARHAWLYQAEEEFEKRQKDNLELPSAEHQAIESSQASVETWKYKAKNSLMYYPEGVPDEEQLFKKPRQVVHKNTRFLRDPFSQALSRCQLQQAAALNAQHKQGKVGPDGKELIPQESPRVGGFGFVATPSPAPGVNESPMMTWGEVENTPLRVEGSETPYVDRTPGPAFKILEPGRRERLGLKMANEAAAKNRAKKQEALRRVTENLASLTPKGLSPAMSPALQRLVSRTASKYTDRALRASYTPSPARSTHLKTPASGLQTPTSTPAPGSATRTPLTQDPASITDNLLQLPARRKASDFF [DGCR14] | 0.334 | 0.458 | 50 | 52.4 |
| MFVSDFRKEFYEVVQSQRVLLFVASDVDALCACKILQALFQCDHVQYTLVPVSGWQELETAFLEHKEQFHYFILINCGANVDLLDILQPDEDTIFFVCDTHRPVNVVNVYNDTQIKLLIKQDDDLEVPAYEDIFRDEEEDEEHSGNDSDGSEPSEKRTRLEEEIVEQTMRRRQRREWEARRRDILFDYEQYEYHGTSSAMVMFELAWMLSKDLNDMLWWAIVGLTDQWVQDKITQMKYVTDVGVLQRHVSRHNHRNEDEENTLSVDCTRISFEYDLRLVLYQHWSLHDSLCNTSYTAARFKLWSVHGQKRLQEFLADMGLPLKQVKQKFQAMDISLKENLREMIEESANKFGMKDMRVQTFSIHFGFKHKFLASDVVFATMSLMESPEKDGSGTDHFIQALDSLSRSNLDKLYHGLELAKKQLRATQQTIASCLCTNLVISQGPFLYCSLMEGTPDVMLFSRPASLSLLSKHLLKSFVCSTKNRRCKLLPLVMAAPLSMEHGTVTVVGIPPETDSSDRKNFFGRAFEKAAESTSSRMLHNHFDLSVIELKAEDRSKFLDALISLLS [CDC45] | -0.233 | -0.126 | 47.6 | 48.5 |
